Literature values in paper PMC10348426.
pKd: −log10 of the molar value. Read-outs that look alike come from different tables or passages of the source. One block for each substance: values may come before it.

Assays:
[1] = target: ER ECD (Arabidopsis thaliana) (UniProt Q42371)
[2] = target: FER ECD (Arabidopsis thaliana) (UniProt Q9SCZ4); experiment: MST
[3] = target: ER ECD (Arabidopsis thaliana) (UniProt Q42371); remark: listed apart in the source

UniProt Q42371, sequence (Q42371 25-580): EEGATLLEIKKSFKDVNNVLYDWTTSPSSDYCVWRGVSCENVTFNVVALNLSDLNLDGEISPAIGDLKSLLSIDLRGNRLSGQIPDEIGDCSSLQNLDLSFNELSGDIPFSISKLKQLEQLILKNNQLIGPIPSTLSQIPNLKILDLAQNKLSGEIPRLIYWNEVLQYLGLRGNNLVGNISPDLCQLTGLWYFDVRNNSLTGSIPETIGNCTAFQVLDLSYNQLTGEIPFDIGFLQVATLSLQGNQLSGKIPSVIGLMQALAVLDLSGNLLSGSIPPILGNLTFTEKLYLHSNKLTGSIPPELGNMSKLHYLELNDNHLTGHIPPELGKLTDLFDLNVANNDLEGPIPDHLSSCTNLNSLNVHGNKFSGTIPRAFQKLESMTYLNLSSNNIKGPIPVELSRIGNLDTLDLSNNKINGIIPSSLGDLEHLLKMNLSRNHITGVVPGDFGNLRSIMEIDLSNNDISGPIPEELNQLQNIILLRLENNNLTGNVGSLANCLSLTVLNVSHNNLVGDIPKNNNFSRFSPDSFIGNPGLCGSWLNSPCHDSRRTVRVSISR
UniProt Q9SCZ4, sequence (Q9SCZ4 28-447): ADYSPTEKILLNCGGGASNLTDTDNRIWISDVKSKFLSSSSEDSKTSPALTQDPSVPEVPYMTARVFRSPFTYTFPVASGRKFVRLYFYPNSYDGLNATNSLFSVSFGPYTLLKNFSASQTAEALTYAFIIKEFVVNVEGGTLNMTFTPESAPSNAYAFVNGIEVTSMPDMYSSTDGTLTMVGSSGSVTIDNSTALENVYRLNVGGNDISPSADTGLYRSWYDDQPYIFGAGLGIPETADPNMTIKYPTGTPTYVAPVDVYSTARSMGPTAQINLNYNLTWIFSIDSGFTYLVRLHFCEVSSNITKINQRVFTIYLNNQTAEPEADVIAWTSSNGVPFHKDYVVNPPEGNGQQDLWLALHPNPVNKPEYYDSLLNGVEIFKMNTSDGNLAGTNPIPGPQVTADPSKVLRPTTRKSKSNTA

pKd [1]: 7.23
Substance: EPF2 (from UniProt Q8LC53)

pKd [2]: 6.79
Substance: RALF33 (from UniProt Q8L9P8)

pKd [3]: 7.36
Substance: STOMAGEN (from UniProt Q9SV72)
